Data from a protein production outcome set (Wang et al. 2014).

Experiment: label from the status in PepcDB records

Sequence: MPSTQSLTVAAKTLRNRIFSRSGSTSAGPSRWATPGHEERPKGYFMNRTPPAPGQSRKWEDWELPCYITSFLTIVILGVGLNAKPDLSIETWAHQKALERLEMEKLATAGDSSD
- protein production: failed

Sequence: MNSLPSPHPPLSPAVPVASRAALRLAELGVFVLTALVVNMPSGLLPFGVCLLGGTLLGWRSLRAGLATQGWSLRVLTGLTAVVIAMSVLSIVLFEPSVRDVENRSRFLVLPWAALWAYALQPRQVWLWRGALAGVFAAMLVAILQVMNGAERAEGWTNAIVFADIALMLLVVAIFCRPNGQVRWLLGAAVAAVAVIVLSGSRGVWLSLLVTLGVLVWGAPWQSARMRLLAFVGGAVVCVGLVLSVPGLTEQLRIGELQSDFQRYEVGDADSSAGARIERLHVAWDTLQAHPLTGVGVGRFDDAMRELPLCAGDTWLLRCHLGHAHNDLAEWGATQGIPGLLLLIAVYGVPLWMFVRLHRRSGQRQFRGPAAAGVMIVISYALCGLTQSMFAHQVSASFYAAMVGILAGLAARQAQQHATAASPLAQSAR
- protein production: failed

Sequence: MSMPILLLVAVILAIYAVAYLFYGRNILQEKVVRASPERETPAIAKFDGVDYVPAHRFVLFGHHFASIAGAGPIVGPAIAMAYGWLLPLVWVLFGNVFMGAVHDYLSLMASVRYGGISIVSVGENLMGRKARYLFLIYVLFTLILVYAAFASIAASLFARDPRVATLSILFMPLALLLGIMMYRMGLGMGPSTVITVVLVIAAFVYSYNHGIVIGTFDPSLPPGEGGWVAYHRWVIILGLYALLAASLPVWYLLQPRDYLNAYILWTGLGLAAIAAILLGTQSLKGPAYTSFQPNIIAGQPTPFWPAIPLIIACGSLSGFHSLVASGTTSKQLASELDALFVGYGAMLLEGALSGLAVIIPISFAWNAPELIQKGVIENNMLDLAAVPRYAVGYGYTLAKTFEMFGVGFDTGYSFFTLFASLMLSMYVLTTLDTGTRLARFAWQELFDWLANVDKNLYSIVTNKWVSSLAVVIIGSALAYPVLEIGAGYKAAYNVVWPAFAGANQMLAAIALLTSALWVYGVLNVRGGTGLLILLPSLFLWVTVTAGLTWWLMVILPVLPAIQQFGAGSMILFTLLLSLLLFALFIINFNKLSKQAGASQQAQA
- protein production: failed

Sequence: MTQVYKAKFGTPNRGWVIIVHGLGEHSGRYSKLVSMLVNEGYAVYTFDWPGHGKSPGKRGHTSVEEAMEIIDFIIEEINDKPFLFGHSLGGLTVIRYAETRPEKIRGVIASSPALAKSPKTPSFMVALAKILGVLLPSLTLSNGIDPNLLSRNPDAVKRYIEDPLVHDRISAKLGRSIFKNMDLAHREAHKIKVPVLLLVGTGDVITPPEGARKLYGEIKVEDKEIVEFEGAYHEIFEDPEWGEEFHKKIVEWIKKH
- protein production: failed

Sequence: MPLVLDLARPVSEEELRRLSELNPGYQWERSPEGRLWVSPTGGESGRRSLQLAYQLARWNEERGLGVVFDSSTGFKFPDGSILSPDAAFVERGAWEALSEAEREGFPPLAPKAVFEVRSASQDPEELRAKMGIYLRNGVLLGVLVDPYARAVEVFRPGKPPLRLEGVERVSLDPELPGFALSLPPLW
- protein production: not failed

Sequence: MKNLKIIWIYRLGLLLLVFLCLLVFLKIKPLWAPIIFVCKVAITPFLIACFIAYLLHPLIEKIHKEGMPRTLAILLIYILFFGGIGYGIYKGTPVVIKQLQEINEQFPQFTKMYDSWMDGVTEQTANFPSFIHEKVKQIFVGVETKIQALLNKVMSTARGVLDSLLIIFLIPFIVFYILKDYGEFYHIFWKLVPSKWRSTGQMLAKEIDKSLGSYIRGQLFVCLVLGGVSALSFWFIGMKYPLLLGIIIGVTDIIPYFGPILGAIPTLMIAATVSTSLLIKAGIAIAILQFVESNILSPYIVGKSLRMHPVIIMLALLVGGEVGGIVGLLISVPILAVIRTVIVHVRPLWKKEDMQ
- protein production: failed

Sequence: MGIDELYKKEFGIVAGVDEAGRGCLAGPVVAAAVVLEKEIEGINDSKQLSPAKRERLLDEIMEKAAVGIGIASPEEIDLYNIFNATKLAMNRALENLSVKPSFVLVDGKGIELSVPGTCLVKGDQKSKLIGAASIVAKVFRDRLMSEFHRMYPQFSFHKHKGYATKEHLNEIRKNGVLPIHRLSFEPVLELLTDDLLREFFEKGLISENRFERILNLLGARKSVVFRKERTNHNLPLF
- protein production: not failed

Sequence: MVQEIIVDSGDIEFLTTPKEYKQQLLSLIECARQRIFITALYLQDDEAGREILHALYQAKANFPTIEINIFVDFNRGQRGLIGEKASLGNRALYLKLAHEYPHTVNIYGVAVKRKELEHHHHHH
- protein production: failed

Sequence: MSIPKEQYNFNKLQKRLRRNVGQAIADFNMIEDGDKIMVCLSGGKDSYTLLSILMNLQKSAPIQFSLIAVNLDQKQPGFPEHILPEYLEQLGVEYKIVEENTYGIVKEIIPEGKTTCSLCSRLRRGILYRTATEVGATKIALGHHRDDILETLFLNMFYGGKLKGMPPKLMSDDGKHIVIRPLAYAREKDIERFAQAKNFPIIPCNLCGSQPNLQRQVIKEMLRDWDKRYPGRIETMFRATQNIVPSHLCDTQLFDFANIKQGDEIINGGDLAFDKDDIPTSPILSDDEDERPDFSQARLDVVEVK
- protein production: not failed

Sequence: QYMSYDRNAFGNQVMGQFGNASGSVTSNKIFGFRSDILLQLLNMKISKDHQELNQNQVIQLVPTYLQQLYNEMNNGDPTMYKDLLNLHSNIVHPSGMYMNPLLYANQNPNAAGYNQGTGGVPPMAGGSVAHGPPAAPAP
- protein production: failed

Sequence: MKKFKLSSFLPLSYILLLVLVSPLYDVLNKSTVHAVDVTTVVDDWIPFVKAFIIPYLLWFPYLYGALIYYCFADRKQYYVTLSSVIFGKLACFSIYYFWQTTVPRPTVVGTDVFSELVRYIYSIDQPVNCFPSIHVLTTFVIMLAAFKRREQHAFEYYILTFFGTLIILSTLFTKQHAFLDAVSGMTLASILYFGVQLLLAKEPIKVPVKQNHKM
- protein production: failed

Sequence: MSSLKDNYQSKVKAYQPSPPYVLNCIKAFLVGGLICTIGQAFQNFYMAVFHFDEKTAGNPTVATLILISALLTGLGVYDRIGQFAGAGSAVPVTGFANSMTSAALEHKSEGYVLGVGTNMFKLAGNVIVFGVVAAYIVGMIRFAFDKLF
- protein production: failed

Sequence: MRFPPLLFFQDSEAVKRIANSVRGTKDDDAEIKDHSMRFIRNAISGDQQKEILNVDMLRYIAWVLVALNENIVTARTVIRERDAVEDALKNQQPEDIENFADDLKINMKYNRDLERFEIGVFDFVKYASRVTGSQYRLSNQSVIKGIVYCQKDVAIKILRESFVSNMFKVIDSIDQTTASPVLSDQTDSINELREFYKKSVYAKLTIGRGNTKAFPPCMKEIIRNLHEGINVPHMGRLAIASFLHKVGYTEDEIVEYFRNAPDFDESITRYQIKHLSGEISGVEYSPPKCETMRSNHLCFMDDDKLCHQDWMKHPLTYYEVKSRRLGLEHHHHHH
- protein production: failed

Sequence: MGHHHHHHSHDPFAHLPKSTFVLDEFKRKYSNEDTLSVALPYFWEHFDKDGWSLWYSEYRFPEELTQTFMSCNLITGMFQRLDKLRKNAFASVILFGTNNSSSISGVWVFRGQELAFPLSPDWQVDYESYTWRKLDPGSEETQTLVREYFSWEGAFQHVGKAFNQGKIFK
- protein production: not failed

Sequence: EVLLETLNATELNETTASLAVHQTMKENGQLFVSNSMAIRYLDRFMDSRPYRMFGNRGINGIDGIVSTALGMSAIAPTQQNVLLIGDLALYHDMNGLFLAKRYQLPLTIVLLNNNGGGIFSFLSQRTLREDDFEPLFGTPLDLDFSLVAELYGASYQEVKTIAELKQILQAAAEEPQFQVIEVKGNRQEN
- protein production: not failed

Sequence: MIGVLSGFFVVWAIILVGMFVGRRNILGENARSVLSSLTFFVASPALLFETLSKAKLHDVFAAPLLVTAVGAVVTGLLFFLIAKFWLKRAMPEALMSSMSSSLANSANLGIPIAVFVLGDASYVAPLLIFQLAFFTPLYLMALDASTSSHRTTPLRFLLMIVKNPMIVGSALGLLVAGTGFHVPTLILEPIHLIGGAAIPAMLMSFGMSLNGSKPLRKASGRRVDTLLASGFKLIVHPLIAYLFARFALGMDGHALFAVVVTSALPTAQNVFVAANRYQAGITVAKDTVLITTIVAVPAMIAVALLLT
- protein production: failed

Sequence: MADVVVGIQWGDEGKGKIVDRIAKDYDFVVRYQGGHNAGHTIVHKGVKHSLHLMPSGVLYPKCKNIISSAVVVSVKDLCEEISAFEDLENRLFVSDRAHVILPYHAKKDAFKEKSQNIGTTKKGIGPCYEDKMARSGIRMGDLLDDKILEEKLNAHFKAIEPFKKAYDLGENYEKDLMGYFKTYAPKICPFIKDTTSMLIEANQKGEKILLEGAQGTLLDIDLGTYPFVTSSNTTSASACVSTGLNPKAINEVIGITKAYSTRVGNGPFPSEDTTPMGDHLRTKGAEFGTTTKRPRRCGWLDLVALKYACALNGCTQLALMKLDVLDGIDAIKVCVAYERKGERLEIFPSDLKDCVPIYQTFKGWEKSVGVRKLDDLEPNVREYIRFIEKEVGVKIRLISTSPEREDTIFL
- protein production: failed

Sequence: RIVGELEQMVSEDVPLDHRVHARIIGARGKAIRKIMDEFKVDIRFPQSGAPDPNCVTVTGLPENVEEAIDHILNLEEEYLAD
- protein production: not failed

Sequence: MQMKKDFGYIRVGVASCELKVANPNYNVKSIISIMKKAYRRHHIKVLVFPELCVTGYTCGDLFNQNLLIKRAENELNNLLVSTSNINMITAVGMPVKADNQLFNCAVIINNGNILGVVPKTFIPTYNEFYEKRNFAGAISRISDEIILCGKKVPFGENLLFKDIYSELCIGIDICEDLWVNIPPSSYHTLNGANLILNLSASDEIVAKSDYRRDLVRLQSAKCITSYAYASSGQTESTSDLVFSGHSIIADNGSILKDIKFEEASYVKYADVDIEKLISDRIKFNTYMGRIEDKEYRTINFHLGYNENMHLERYVEASPFVPSNKSKRNIRCREILDLQASGLYQRLNKTGINKAVVGISGGLDSTLALLVIVEAFKKLKAPMKNIIGITMPGFGTTRRTYNNAVELMKKLGITIKEISIKKACIQHFNDIGQDLNTHDTIYENSQARERTQILMDIANKEGAIVVGTGDLSELALGWCTYNGDQMSMYGVNSSIPKTLVKYLIMWYAEASKDNDIRNILLDIYNTPVSPELLPPDKEGNIKQKTEDLIGSYELNDFFLYNMLRSGYEPLKILYLANIAFKDKYSEDVIHSALKNFYKRFFTQQFKRNCMPDGVKIGSVSLSPRGDLRMPSDASYGLWMDEL
- protein production: failed

Sequence: MRIEVVNVSHIFHRGTPLEKKALENVSLVINEGECLLVAGNTGSGKSTLLQIVAGLIEPTSGDVLYDGERKKGYEIRRNIGIAFQYPEDQFFAERVFDEVAFAVKNFYPDRDPVPLVKKAMEFVGLDFDSFKDRVPFFLSGGEKRRVAIASVIVHEPDILILDEPLVGLDREGKTDLLRIVEKWKTLGKTVILISHDIETVINHVDRVVVLEKGKKVFDGTRMEFLEKYDPRFFTSKMLVMRRLVLKGEDPFSMSDDELLERVCNS
- protein production: not failed

Sequence: MAHEAQKAIARNSLLIRSLPEQHVDALLSQAVWRSYDRGETLFLQEEKAQAIHVVIDGWVKLFRMTPTGSEAVVSVFTRGESFGEAVALRNTPYPVSAEAVTPCEVMHIPSPVFVSLMRRDPEICISILATTFGHLHSLVAQLEQLKAQTGAQRVAEFLLELCDCDTGACEVTLPYDKMLIAGRLGMKPESLSRAFSRLKAAGVTVKRNHAEIEDIALLRDYAESDPADSWSKS
- protein production: not failed

Sequence: MKLSATIAIILLNWNGWRDTVDCVESCRKLDYPNFRIVIVDNGSTDGSEAILRERFPDVELIQTGANLGFAGGNNAGIRHALVRGADYVWLLNNDTVVEPGALGALVRVAESDPRVGMVGSKIVYFDDPWLLWFAGAVIDPERPHRPFHRGLHERDTGQYDRVAETGYVTGCSLLARREMMAEVGMLDDDLFLYFEDADWSARAARAGWKLLYVPDSVVRHKESVSSGGAASPRLVYYTARNRLYFVRRNFPAKLAAALCYDLFEHVLVNVKKGRFPLAVAGCRGIRDFLAGKIGPMPLEHHHHHH
- protein production: not failed
